Several values for one entry are separate records, joined by “and”; a condition that tells them apart may be missing. Equal entries are not always repeated.
B1: Phosphofructokinase (PFKM), endogenous (enzyme, human (endogenous in SKOV3 and OVCAR3), UniProt P08237-1 1-780, looked up)
chain: MTHEEHHAAKTLGIGKAIAVLTSGGDAQGMNAAVRAVVRVGIFTGARVFFVHEGYQGLVDGGDHIKEATWESVSMMLQLGGTVIGSARCKDFREREGRLRAAYNLVKRGITNLCVIGGDGSLTGADTFRSEWSDLLSDLQKAGKITDEEATKSSYLNIVGLVGSIDNDFCGTDMTIGTDSALHRIMEIVDAITTTAQSHQRTFVLEVMGRHCGYLALVTSLSCGADWVFIPECPPDDDWEEHLCRRLSETRTRGSRLNIIIVAEGAIDKNGKPITSEDIKNLVVKRLGYDTRVTVLGHVQRGGTPSAFDRILGSRMGVEAVMALLEGTPDTPACVVSLSGNQAVRLPLMECVQVTKDVTKAMDEKKFDEALKLRGRSFMNNWEVYKLLAHVRPPVSKSGSHTVAVMNVGAPAAGMNAAVRSTVRIGLIQGNRVLVVHDGFEGLAKGQIEEAGWSYVGGWTGQGGSKLGTKRTLPKKSFEQISANITKFNIQGLVIIGGFEAYTGGLELMEGRKQFDELCIPFVVIPATVSNNVPGSDFSVGADTALNTICTTCDRIKQSAAGTKRRVFIIETMGGYCGYLATMAGLAAGADAAYIFEEPFTIRDLQANVEHLVQKMKTTVKRGLVLRNEKCNENYTTDFIFNLYSEEGKGIFDSRKNVLGHMQQGGSPTPFDRNFATKMGAKAMNWMSGKIKESYRNGRIFANTPDSGCVLGMRKRALVFQPVAELKDQTDFEHRIPKEQWWLKLRPILKILAKYEIDLDTSDHAHLEHITRKRSGEAAV
notes: PFKM, muscle isoform of phosphofructokinase 1, human, endogenous in ovarian cancer cells; also called PFK1 (M isoform); source: endogenous, SKOV3 (control, OE-NOS1) and OVCAR3 cell lysate
B2: Flag-tagged WT human PFK1 (M isoform) (enzyme, UniProt P08237-1 1-780, looked up)
chain: B1 chain
notes: human PFK1 (M isoform, PFKM) cDNA (ATCC, NCBI NP_000280.1) in the expression vector PCDNA3.1; the vector section is headed 'for ovarian cancer cells expression'; also called Flag-PFKM; Flag-PFKM-WT; source: SKOV3-PFKM-KO cells, transfected, in lysate

Biological target: the molecule itself
Assay: non-reducing SDS-PAGE with western blot; cell extracts separated by non-reducing SDS-PAGE, blot for PFKM tetramer, dimer and monomer; SKOV3 control and OE-NOS1 cells, SKOV3 and OVCAR3 cells with GSNO (1 mM, 30 min) or PBS, SKOV3-PFKM-KO cells (with or without OE-NOS1) reconstituted with Flag-PFKM-WT or C351S

Protein	stoichiometry N
B1	4 and 2
B2	4 and 2

Reference: paper PMC8050300, “The role of S-nitrosylation of PFKM in regulation of glycolysis in ovarian cancer cells” (Cell Death & Disease, 2021)
